According to US20240018260A1 (AMUNIX PHARMACEUTICALS, published 2024):

T1: recombinant human CD3 (rhCD3εδ) (human, UniProt P07766 23-126; P04234 22-105)
T1 chain: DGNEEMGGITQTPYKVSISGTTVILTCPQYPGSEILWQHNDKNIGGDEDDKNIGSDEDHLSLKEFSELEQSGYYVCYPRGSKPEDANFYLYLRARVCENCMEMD

T2: human EpCAM on EpCAM positive human carcinoma cells (SW480, SK-OV-3) (human, UniProt P16422 24-314)
T2 sequence (looked up): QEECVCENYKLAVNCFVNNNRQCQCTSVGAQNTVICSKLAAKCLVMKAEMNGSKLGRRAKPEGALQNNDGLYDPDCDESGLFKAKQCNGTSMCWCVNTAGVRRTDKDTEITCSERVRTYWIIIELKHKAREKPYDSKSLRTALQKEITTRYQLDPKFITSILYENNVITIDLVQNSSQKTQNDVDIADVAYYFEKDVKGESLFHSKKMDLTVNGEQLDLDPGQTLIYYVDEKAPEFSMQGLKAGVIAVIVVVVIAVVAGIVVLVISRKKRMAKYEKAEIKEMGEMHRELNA

T3: recombinant human EpCAM (rhEpCAM) (human, UniProt P16422 24-265)
T3 construct: Bought recombinant protein coated on the ELISA plate
T3 sequence (looked up): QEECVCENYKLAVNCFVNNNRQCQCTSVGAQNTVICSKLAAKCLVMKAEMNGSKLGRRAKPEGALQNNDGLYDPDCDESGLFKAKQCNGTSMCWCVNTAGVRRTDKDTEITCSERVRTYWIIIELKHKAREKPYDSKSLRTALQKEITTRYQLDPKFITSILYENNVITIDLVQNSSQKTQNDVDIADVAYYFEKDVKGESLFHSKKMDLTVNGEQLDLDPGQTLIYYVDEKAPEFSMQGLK


Columns and labels:
[1] = biological target: T1, recombinant human CD3 (rhCD3εδ); assay: sandwich ELISA: rhCD3εδ coated on plate, detection with peroxidase-conjugated protein L
[2] = biological target: T2, human EpCAM on EpCAM positive human …; assay: cell-based or functional assay
[3] = biological target: human CD3 on purified human CD3 positive T cells (human, UniProt P07766 23-207); assay: cell-based or functional assay
[4] = biological target: T3, recombinant human EpCAM (rhEpCAM); assay: sandwich ELISA: rhEpCAM coated on plate, detection with peroxidase-conjugated protein L
Description: The binding capability of anti-EpCAM×anti-CD3 ProTIA composition was verified with an EpCAM/peroxidase-conjugated protein-L sandwich ELISA. In the ELISA binding assay, recombinant human EpCAM (rhEpCAM) (Sino BiologicalR&D Systems cat #10694-H08H960-EP-50) was coated on a 96-well, flat-bottomed plate at a concentration of 0.1 microg/100 microL. After overnight incubation at 4° C., the assay plate was washed and blocked with 3% bovine serum albumin (BSA) for 1 h at room temperature. The plate was washed again followed by the introduction of a dose range of non-cleavable anti-EpCAM×anti-CD3 ProTIA (i.e., a ProTIA without the release segment cleavage sequence and AC1484, a ProTIA chimeric polypeptide assembly composition) and protease-treated and protease-untreated anti-EpCAM×anti-CD3 ProTIA (e.g. AC1476). The dose range utilized for non-cleavable and protease-treated and untreated ProTIA was 0.0006 to 5 nM, achieved with a 1:6 fold serial dilution scheme from a starting concentration of 5 nM. The plate was allowed to incubate with shaking for 1 h at room temperature to allow the non-cleavable, protease-cleaved and uncleaved ProTIA to bind to the rhEpCAM coated on the plate. Unbound components were removed with a wash step and a peroxidase-conjugated protein L (PierceThermoFisher Scientific cat #32420) was added. After an appropriate incubation period that allowed protein-L to bind to the kappa light of the scFvs, any unbound reagent was removed by a wash step followed by the addition of tetramethylbenzidine (TMB) substrate to each well. TMB is a chromogenic substrate of peroxidase. After desired color intensity was reached, 0.2 N sulfuric acid was added to stop the reaction and absorbance (OD) was measured at 450 nm using a spectrophotometer. The intensity of the color is proportional to the concentration of non-cleavable, protease-treated and untreated anti-EpCAM×anti-CD3 ProTIA captured by the rhEpCAM/protein-L sandwich ELISA. The intensity of the color produced (measured OD) was plotted against protein concentration; and the concentration of non-cleavable, protease-cleaved and uncleaved anti-EpCAM×anti-CD3 ProTIA that gave half-maximal response (EC₅₀) was derived with a 4-parameter logistic regression equation using GraphPad prism software.

Row | Binder | EC50 [1] | fold hindrance of binding by XTEN864, against the cleaved and released anti-CD3scFv portion [1] | EC50, LDH release cytotoxicity, PBMC:SK-OV-3 5:1 [2] | EC50, LDH release cytotoxicity, purified human CD3 positive T cells:OVCAR-3 5:1 [3] | EC50, LDH release cytotoxicity, purified human CD3 positive T cells:SK-OV-3 5:1 [3] | EC50 [4] | fold hindrance of binding by XTEN864, against protease-treated ProTIA [4]
1 | AC1476 aEpCAM-aCD3-BSRS1-XTEN_AE864-His(6), protease-untreated (intact) anti-EpCAM×anti-CD3 ProTIA (bispecific antibody, also called ProTIA-X; protease-untreated anti-EpCAM×anti-CD3 ProTIA) DIQMTQSPSSLSASVGDRVTITCRSTKSLLHSNGITYLYWYQQKPGKAPKLLIYQMSNLASGVPSRFSSSGSGTDFTLTISSLQPEDFATYYCAQNLEIPRTFGQGTKVEIKGATPPETGAETESPGETTGGSAESEPPGEGQVQLVQSGPGLVQPGGSVRISCAASGYTFTNYGMNWVKQAPGKGLEWMGWINTYTGESTYADSFKGRFTFSLDTSASAAYLQINSLRAEDTAVYYCARFAIKGDYWGQGTLLTVSSGGGGSDIQMTQSPSSLSASVGDRVTITCRASQDIRNYLNWYQQKPGKAPKLLIYYTSRLESGVPSRFSGSGSGTDYTLTISSLQPEDFATYYCQQGNTLPWTFGQGTKVEIKGATPPETGAETESPGETTGGSAESEPPGEGEVQLVESGGGLVQPGGSLRLSCAASGYSFTGYTMNWVRQAPGKGLEWVALINPYKGVSTYNQKFKDRFTISVDKSKNTAYLQMNSLRAEDTAVYYCARSGYYGDSDWYFDVWGQGTLVTVSSGTAEAASASGLSGRSDNHSPLGLAGSPGSPAGSPTSTEEGTSESATPESGPGTSTEPSEGSAPGSPAGSPTSTEEGTSTEPSEGSAPGTSTEPSEGSAPGTSESATPESGPGSEPATSGSETPGSEPATSGSETPGSPAGSPTSTEEGTSESATPESGPGTSTEPSEGSAPGTSTEPSEGSAPGSPAGSPTSTEEGTSTEPSEGSAPGTSTEPSEGSAPGTSESATPESGPGTSTEPSEGSAPGTSESATPESGPGSEPATSGSETPGTSTEPSEGSAPGTSTEPSEGSAPGTSESATPESGPGTSESATPESGPGSPAGSPTSTEEGTSESATPESGPGSEPATSGSETPGTSESATPESGPGTSTEPSEGSAPGTSTEPSEGSAPGTSTEPSEGSAPGTSTEPSEGSAPGTSTEPSEGSAPGTSTEPSEGSAPGSPAGSPTSTEEGTSTEPSEGSAPGTSESATPESGPGSEPATSGSETPGTSESATPESGPGSEPATSGSETPGTSESATPESGPGTSTEPSEGSAPGTSESATPESGPGSPAGSPTSTEEGSPAGSPTSTEEGSPAGSPTSTEEGTSESATPESGPGTSTEPSEGSAPGTSESATPESGPGSEPATSGSETPGTSESATPESGPGSEPATSGSETPGTSESATPESGPGTSTEPSEGSAPGSPAGSPTSTEEGTSESATPESGPGSEPATSGSETPGTSESATPESGPGSPAGSPTSTEEGSPAGSPTSTEEGTSTEPSEGSAPGTSESATPESGPGTSESATPESGPGTSESATPESGPGSEPATSGSETPGSEPATSGSETPGSPAGSPTSTEEGTSTEPSEGSAPGTSTEPSEGSAPGSEPATSGSETPGTSESATPESGPGTSTEPSEGSAPGHHHHHH | 1800 pM | ~5.8 fold | 136 pM | 0.7 pM | 134 pM | 280 pM | ≥ 2.3 fold
2 | AC1484, non-cleavable anti-EpCAM×anti-CD3 ProTIA (without the release segment cleavage sequence) (bispecific antibody, also called non-cleavable ProTIA; protease-noncleavable anti-EpCAM×anti-CD3 ProTIA) DIQMTQSPSSLSASVGDRVTITCRSTKSLLHSNGITYLYWYQQKPGKAPKLLIYQMSNLASGVPSRFSSSGSGTDFTLTISSLQPEDFATYYCAQNLEIPRTFGQGTKVEIKGATPPETGAETESPGETTGGSAESEPPGEGQVQLVQSGPGLVQPGGSVRISCAASGYTFTNYGMNWVKQAPGKGLEWMGWINTYTGESTYADSFKGRFTFSLDTSASAAYLQINSLRAEDTAVYYCARFAIKGDYWGQGTLLTVSSGGGGSDIQMTQSPSSLSASVGDRVTITCRASQDIRNYLNWYQQKPGKAPKLLIYYTSRLESGVPSRFSGSGSGTDYTLTISSLQPEDFATYYCQQGNTLPWTFGQGTKVEIKGATPPETGAETESPGETTGGSAESEPPGEGEVQLVESGGGLVQPGGSLRLSCAASGYSFTGYTMNWVRQAPGKGLEWVALINPYKGVSTYNQKFKDRFTISVDKSKNTAYLQMNSLRAEDTAVYYCARSGYYGDSDWYFDVWGQGTLVTVSSGSPGSPAGSPTSTEEGTSESATPESGPGTSTEPSEGSAPGSPAGSPTSTEEGTSTEPSEGSAPGTSTEPSEGSAPGTSESATPESGPGSEPATSGSETPGSEPATSGSETPGSPAGSPTSTEEGTSESATPESGPGTSTEPSEGSAPGTSTEPSEGSAPGSPAGSPTSTEEGTSTEPSEGSAPGTSTEPSEGSAPGTSESATPESGPGTSTEPSEGSAPGTSESATPESGPGSEPATSGSETPGTSTEPSEGSAPGTSTEPSEGSAPGTSESATPESGPGTSESATPESGPGSPAGSPTSTEEGTSESATPESGPGSEPATSGSETPGTSESATPESGPGTSTEPSEGSAPGTSTEPSEGSAPGTSTEPSEGSAPGTSTEPSEGSAPGTSTEPSEGSAPGTSTEPSEGSAPGSPAGSPTSTEEGTSTEPSEGSAPGTSESATPESGPGSEPATSGSETPGTSESATPESGPGSEPATSGSETPGTSESATPESGPGTSTEPSEGSAPGTSESATPESGPGSPAGSPTSTEEGSPAGSPTSTEEGSPAGSPTSTEEGTSESATPESGPGTSTEPSEGSAPGTSESATPESGPGSEPATSGSETPGTSESATPESGPGSEPATSGSETPGTSESATPESGPGTSTEPSEGSAPGSPAGSPTSTEEGTSESATPESGPGSEPATSGSETPGTSESATPESGPGSPAGSPTSTEEGSPAGSPTSTEEGTSTEPSEGSAPGTSESATPESGPGTSESATPESGPGTSESATPESGPGSEPATSGSETPGSEPATSGSETPGSPAGSPTSTEEGTSTEPSEGSAPGTSTEPSEGSAPGSEPATSGSETPGTSESATPESGPGTSTEPSEGSAPGHHHHHH | 2200 pM |  | 1790 pM | 86 pM | 2660 pM | 320 pM | 
